Holding throughout (type): biochemical
A short description of test [1]: Transpeptidation of Bz-G-A-R-A-R-X-OH at pH 6.5 at 50% substrate consumption, Table 5. The arrangement: key to fa: fa = aminolysis product / sum of all products formed. As to conditions: for Pmax (peak product yield) / fa: 750 mM H-Leu-NH2; for fa / t: 50% substrate consumption; for t: 750 mM H-Leu-NH2, 2 mM substrate, [E] 0.1 mg/mL. The protocol:
Transamidation reactions were carried out generally as described in PCT Application WO 95/20039. In general, the method included dissolving the nucleophile (H-Leu-NH2, unless otherwise indicated) in 50 mM HEPES, […], 5 μl of peptide substrate (8 mM Bz-G-A-R-A-R-A-OH, unless otherwise indicated, in methanol) was added to 190 μl nucleophile solution followed by 5 μl enzyme, resulting in a substrate concentration of 0.2 mM.
(§1) During the reaction, 20 μl aliquots were removed from the reaction mixture and added to 50 μl 1% trifluoroacetic acid to quench the reaction. The reactant composition was determined by HPLC using a Waters HPLC equipped with a C-18 Waters Novapac 4μ reverse phase column and various gradients of acetonitrile in 0.1% trifluoroacetic acid. The separation was monitored at 254 nm allowing the direct quantification of the products from the integrated peak areas. The composition of the reaction mixture was determined at least twvice during the reaction, the first when 20-50% (preferably 35%) of the substrate had been consumed in the reaction and the second time when 50-90% (preferably 80%) of the peptide substrate had been consumed.
The fraction of aminolysis (fa) was expressed as the ratio between the formed aminolysis product and the sum of all products formed. Unconsumed substrate was disregarded in the calculations. […]

The nature of test [2]: Transpeptidation of Bz-G-A-R-A-R-X-OH at pH 7.5 at 50% substrate consumption, Table 4. The arrangement: key to fa: fraction: aminolysis product / sum of all products formed. The conditions noted are these: for Pmax (peak product yield) / fa: 375 mM H-Leu-NH2; for fa / t: 50% substrate consumption; for t: 375 mM H-Leu-NH2, 2 mM substrate, [E] 0.1 mg/mL. As to the method: Transamidation reactions were carried out generally as described in PCT Application WO 95/20039. In general, the method included dissolving the nucleophile (H-Leu-NH2, unless otherwise indicated) in 50 mM HEPES, 5 mM EDTA and adjusting the pH to 7.5, 5 μl of peptide substrate (8 mM Bz-G-A-R-A-R-A-OH, unless otherwise indicated, in methanol) was added to 190 μl nucleophile solution followed by 5 μl enzyme, resulting in a substrate concentration of 0.2 mM.
as §1
(§2) The fraction of aminolysis (fa) was expressed as the ratio between the formed aminolysis product and the sum of all products formed. Unconsumed substrate was disregarded in the calculations.
Site specific mutagenesis was performed as described for Example 1 to generate the specific mutants described below. Transamidation reactions were performed as described for Examples 1.

Test [3] is described as follows: Transamidation of Bz-G-A-R-A-R-A-OH, Table 6. As to conditions: [S] = 2 mM; H-Leu-NH2 375 mM; pH 7.5; [E] 0.1 mg/mL.
The nature of test [4]: Transamidation of FA-Arg-Ala-OH, Table 6. As to conditions: H-Leu-NH2 375 mM, pH 7.5, [E] 0.1 mg/mL.
The nature of test [5]: Transamidation of Bz-G-A-R-A-R-A-OH, Table 6. The conditions noted are these: H-Leu-NH2 375 mM, pH 7.5, [E] 0.1 mg/mL. As to the method:
(§3) Transamidation reactions were carried out generally as described in PCT Application WO 95/20039. In general, the method included dissolving the nucleophile (H-Leu-NH2, unless otherwise indicated) in 50 mM HEPES, 5 mM EDTA and adjusting the pH to 7.5, 5 μl of peptide substrate (8 mM Bz-G-A-R-A-R-A-OH, unless otherwise indicated, in methanol) was added to 190 μl nucleophile solution followed by 5 μl enzyme, […]
as §1, §2
Site specific mutagenesis was performed as described for Example 1 to generate the specific mutants described below. Transamidation reactions were performed as described in the previous examples.

Test [6] can be described thus: Transpeptidation of Bz-G-A-R-A-R-A-OH (arginine at P1) with H-Leu-NH2, Table 1. The conditions noted are these: 2mM substrate, pH 7.5, [E] 0.1 mg/mL. The protocol: The mutant carboxypeptidase enzvmes used in these studies were produced by site-directed mutagenesis, essentially following the procedures described in published PCT Patent Application No. WO 95/20039. In general, oligonucleotides synthesized to encode the amino acid substitution were used to produce the mutant enzymes.
as §3, §1
The reaction products were collected and identified by amino acid analysis after acid hydrolysis using a Pharmacia Alpha Plus analyzer. Further identification was obtained by co-chromatography of authentic standard compounds.
as §2

Changes are numbered by the printed parent chain. Names and notes keep the numbering of the source.

B1: L178S + M398L: carboxypeptidase Y mutant L178S + M398L (S1 and S1' subsites) (protein, UniProt P00729 112-532, looked up, variant L178S M398L)
Carboxypeptidase Y: KIKDPKILGIDPNVTQYTGYLDVEDEDKHFFFWTFESRNDPAKDPVILWLNGGPGCSSLTGLFFELGPSSIGPDLKPIGNPYSWNSNATVIFLDQPVNVGFSYSGSSGVSNTVAAGKDVYNFLELFFDQFPEYVNKGQDFHIAGESYAGHYIPVFASEILSHKDRNFNLTSVLIGNGSTDPLTQYNYYEPMACGEGGEPSVLPSEECSAMEDSLERCLGLIESCYDSQSVWSCVPATIYCNNAQLAPYQRTGRNVYDIRKDCEGGNLCYPTLQDIDDYLNQDYVKEAVGAEVDHYESCNFDINRNFLFAGDWMKPYHTAVTDLLNQDLPILVYAGDKDFICNWLGNKAWTDVLPWKYDEEFASQKVRNWTASITDEVAGEVKSYKHFTYLRVFNGGHLVPFDVPENALSMVNEWIHGGFSL
Take B1: the “Pmax (peak product yield)” value in test [1] (leaving group A) was 0.48; in test [1] (leaving group L), 0.54; in test [2] (leaving group A), above 0.48; in test [2] (leaving group L), above 0.39. The fa came to 0.92 in test [1] (leaving group A); 0.54 in test [1] (leaving group L); 0.77 in test [2] (leaving group A); 0.54 in test [2] (leaving group I); 0.39 in test [2] (leaving group L); 0.17 in test [2] (leaving group M). For the same molecule, the fa in test [2] (leaving group V) is reported as 0.45; in test [3], 0.91; in test [4] ([S] = 2 mM), “.99”. In addition, the “t” value in test [1] (leaving group A) is recorded as 53 min; in test [1] (leaving group L), 19 min; in test [2] (leaving group A) it was 41 min; in test [2] (leaving group I) it was 33 min; in test [2] (leaving group L), 1 min; in test [2] (leaving group M), 17 min. For the same molecule, in test [2] (leaving group V), the “t” value is on record as 30 min. The same molecule came in with a Pmax in test [4] ([S] = 2 mM) of 0.90.

B2: N241D + W312N: carboxypeptidase Y mutant N241D + W312N (protein, UniProt P00729 112-532, looked up, variant N241D W312N)
Carboxypeptidase Y: B1 Carboxypeptidase Y with S178L, N241D, W312N, L398M
B2: the fa was 0.17 in test [3] and 0.74 in test [4] ([S] = 2 mM). Moreover, the Pmax turned out to be 0.58 in test [4] ([S] = 2 mM) and 0.13 in test [5] ([S] = 2 mM).

B3: W312D: carboxypeptidase Y S1 mutant, substitution W312D (protein, UniProt P00729 112-532, looked up, variant W312D)
Carboxypeptidase Y: B1 Carboxypeptidase Y with S178L, W312D, L398M
Consider B3, for which the fa in test [3] is recorded as 0.16; in test [4] ([S] = 2 mM) it was 0.77. Also, the “fa (fraction of aminolysis)” value in test [6] ([N] 375 mM H-Leu-NH2) was 0.15. Besides, the Pmax in test [4] ([S] = 2 mM) was determined as 0.67; in test [5] ([S] = 2 mM) it was 0.08.

B4: N241D + W312A: carboxypeptidase Y mutant N241D + W312A (protein, UniProt P00729 112-532, looked up, variant N241D W312A)
Carboxypeptidase Y: B1 Carboxypeptidase Y with S178L, N241D, W312A, L398M
Consider B4, for which the fa was 0.28 in test [3] and 0.80 in test [4] ([S] = 2 mM). In addition, the Pmax in test [4] ([S] = 2 mM) was determined as 0.72; in test [5] ([S] = 2 mM) it was 0.20.

B5: N241E: carboxypeptidase Y S1 mutant, substitution N241E (protein, UniProt P00729 112-532, looked up, variant N241E)
Carboxypeptidase Y: B1 Carboxypeptidase Y with S178L, N241E, L398M
For B5, the fa in test [3] is on record as 0.47; in test [4] ([S] = 0.2 mM) it was 0.70; in test [4] ([S] = 2 mM) it was 0.92; in test [5] ([S] = 0.2 mM), 0.43. In addition, the “fa (fraction of aminolysis)” value in test [6] ([N] 50 mM H-Leu-NH2) turned out to be 0.27. In addition, the figures for the Pmax in test [4] ([S] = 0.2 mM), in test [5] ([S] = 0.2 mM) and in test [5] ([S] = 2 mM) were 0.49, 0.25 and 0.25, respectively.

B6: N241D + W312F: carboxypeptidase Y mutant N241D + W312F (protein, UniProt P00729 112-532, looked up, variant N241D W312F)
Carboxypeptidase Y: B1 Carboxypeptidase Y with S178L, N241D, W312F, L398M
In the case of B6, the values for the fa in test [3] and in test [4] ([S] = 2 mM) were 0.24 and 0.70, respectively. Moreover, the Pmax in test [4] ([S] = 2 mM) was determined as 0.58; in test [5] ([S] = 2 mM), 0.17.

B7: L245E + W312N: carboxypeptidase Y combination mutant L245E + W312N (protein, UniProt P00729 112-532, looked up, variant L245E W312N)
Carboxypeptidase Y: B1 Carboxypeptidase Y with S178L, L245E, W312N, L398M
As to B7, the “fa (fraction of aminolysis)” value in test [6] ([N] 375 mM H-Leu-NH2) is on record as 0.20.

B8: L178A: carboxypeptidase Y S1 mutant, substitution L178A (protein, UniProt P00729 112-532, looked up, variant L178A)
Carboxypeptidase Y: B1 Carboxypeptidase Y with S178A, L398M
Turning to B8, in test [6] ([N] 375 mM H-Leu-NH2), the “fa (fraction of aminolysis)” value is given as 0.45.

B9: L245E: carboxypeptidase Y S1 mutant, substitution L245E (protein, UniProt P00729 112-532, looked up, variant L245E)
Carboxypeptidase Y: B1 Carboxypeptidase Y with S178L, L245E, L398M
Turning to B9, the fa in test [3] worked out at 0.20; in test [4] ([S] = 2 mM) it was 0.83. Besides, the results for the “fa (fraction of aminolysis)” value in test [6] ([N] 50 mM H-Leu-NH2) and in test [6] ([N] 375 mM H-Leu-NH2) were 0.07 and 0.18, respectively. The Pmax worked out at 0.73 in test [4] ([S] = 2 mM) and 0.09 in test [5] ([S] = 2 mM).

B10: N241D + W312L: carboxypeptidase Y mutant N241D + W312L (protein, UniProt P00729 112-532, looked up, variant N241D W312L)
Carboxypeptidase Y: B1 Carboxypeptidase Y with S178L, N241D, W312L, L398M
B10: the fa in test [3] turned out to be 0.05; in test [4] ([S] = 2 mM), 0.50. In addition, the Pmax in test [4] ([S] = 2 mM) came out at 0.37; in test [5] ([S] = 2 mM), 0.05.

B11: N241D: carboxypeptidase Y mutant, substitution N241D (protein, UniProt P00729 112-532, looked up, variant N241D)
Carboxypeptidase Y: B1 Carboxypeptidase Y with S178L, N241D, L398M
As for B11, the values for the fa in test [3] and in test [4] ([S] = 2 mM) were 0.15 and 0.85, respectively. Moreover, the figures for the Pmax in test [4] ([S] = 2 mM) and in test [5] ([S] = 2 mM) were 0.56 and 0.09, respectively.

(Values after US20010010923A1, “MODIFIED CARBOXYPEPTIDASE” (priority 1997, published 2001).)
